The results in this text go back to the RNAGym collection of RNA variant scans (doi:10.7554/elife.80360).

B1: Twister Ribozyme (parent)
chain: AACACUGCCAAUGCCGGUCCCAAGCCCGGAUAAAAGUGGAGGGGGCGG

Variants of B1 are the subject of this data set. The experiment in a line: self-cleavage, relative activity (ratio to wild type); higher = more cleavage; co-transcriptional.
Take AACACUGCCAAUGCCGGUCCCGAGCCCGGAUAAAAGUGGACGGGGCGG [A22G G41C]: the self-cleavage came out at 0.133.
Take AACACUGCCAAUGCCGGUCCCAAGACGGGAUAAAAGUGGAGGGGGCGG [C25A C27G]: the self-cleavage was 0.104.
Under AACACUGCCAAUGCCGGUCCCAAGCCAGGUUAAAAGUGGAGGGGGCGG [C27A A30U] stands 0.707; under AACACUGCGAAUGCCGGUCCCAAGCCCCGAUAAAAGUGGAGGGGGCGG [C9G G28C], 0.495; under AACACUGCCAAUGCAGGUCCCAAGCCCGGAUAAAAGUGGCGGGGGCGG [C15A A40C], 0.136.
Turning to AACACUGCCAAUGGCGGUCCCAAGCGCGGAUAAAAGUGGAGGGGGCGG [C14G C26G], the self-cleavage amounted to 0.0666.
With AACAGUGUCAAUGCCGGUCCCAAGCCCGGAUAAAAGUGGAGGGGGCGG [C5G C8U], the self-cleavage was found to be 0.294.
In the case of AACACUGCCAAUGCCGGUCCCAGGCCCGGAUAAAAGUCGAGGGGGCGG [A23G G38C], the self-cleavage was determined as 0.289.
Under AACACUGCCAAUGCCGGUCCCCAGCCCGGAUAAAAAUGGAGGGGGCGG [A22C G36A] stands 0.547; under AACACUGCCAGUGCGGGUCCCAAGCCCGGAUAAAAGUGGAGGGGGCGG [A11G C15G], 0.0492.
Under AACACUGCGAAUGCCGGUCCCAAGCCCGGAGAAAAGUGGAGGGGGCGG [C9G U31G] stands 0.781; under AACACUGCCAAUGCCGGUCCCAAGCCCGGAUAAAAGUGGAGUGGGAGG [G42U C46A], 0.162; under AACACUGCCAAUCCCGGUCCCAAGCCCGGAAAAAAGUGGAGGGGGCGG [G13C U31A], 0.767.
In the case of AACACUGCCAAGGCCGGUCCCAAGCCCGGCUAAAAGUGGAGGGGGCGG [U12G A30C], the self-cleavage stood at 0.969.
Under AACACUGCCCAUGCCGGUCCCAAGCCCGGAUAGAAGUGGAGGGGGCGG [A10C A33G] stands 1.04; under AACACUGCCAAUGCCGGCCCCAAGCGCGGAUAAAAGUGGAGGGGGCGG [U18C C26G], 0.0519.
As for AACACUGCCAAUGCCGGCCCCAAGCUCGGAUAAAAGUGGAGGGGGCGG [U18C C26U], the self-cleavage was 0.0772.
On to AACACUGCCAAUGCCGGUUCCAAGCCCGGAUAAAAGCGGAGGGGGCGG [C19U U37C], for which the self-cleavage came out at 0.242.
Under AACACUGCCAAUGCCGGUCCCAAGCCCGGAAAAAAGUUGAGGGGGCGG [U31A G38U] stands 0.692; under AACACUGCCAAUGCCGGUCCCAAGUCCGGAUAAAAUUGGAGGGGGCGG [C25U G36U], 0.123; under AACACUGCCAAUGCCGGUCCCAAGUCCGGAUAAAACUGGAGGGGGCGG [C25U G36C], 0.15.
As to AACACUGCCAAUGCCGGUCCCUAGCCAGGAUAAAAGUGGAGGGGGCGG [A22U C27A], the self-cleavage stood at 0.159.
In the case of AACACUGCCAAUGCCGGUCCCAAGCCCGGAUAAAAGUGGACGGGCCGG [G41C G45C], the self-cleavage was determined as 0.253.
As for AACACUGCCAAUGGCGGUCCCAAGCCCGGAUAAAAGUGGAGGGGGCGA [C14G G48A], the self-cleavage stood at 0.0949.
With AACACUGCCAAUGCCGGUCCCAAGCCCGGAUAAGACUGGAGGGGGCGG [A34G G36C] the figure was 0.179.
Regarding AACACCGCCAAUGCCGGUCCCAAGCCCGGAUAAAAGGGGAGGGGGCGG [U6C U37G], the self-cleavage worked out at 0.181.
Under AACACUGCCAAUGCCGAUCCCAAGCCCGGAUAAAAGUGGAGGGGGCGU [G17A G48U] stands 0.603.
Under AACACUGCAACUGCCGGUCCCAAGCCCGGAUAAAAGUGGAGGGGGCGG [C9A A11C] stands 1.03.
Under AACACUGCCAAUGCCGGUCACAAGCCGGGAUAAAAGUGGAGGGGGCGG [C20A C27G] stands 0.0759; under AACACUGCCAAUGCCGAUCCCAAGCCCGGAUAAAAGUGGAGGAGGCGG [G17A G43A], 0.156; under AACACUGCCAAUGCCGGUCCCAAGCCUGGCUAAAAGUGGAGGGGGCGG [C27U A30C], 0.701.
For the variant AACACUUCCAAUGCCGGUCCCAAGCCCGGAUAAAAGUGGAGAGGGCGG [G7U G42A], the self-cleavage stood at 0.0796.
With AACACUGCCAAUGCCGGUCCCAAGCCCGGAUUAAGGUGGAGGGGGCGG [A32U A35G] the figure was 0.746.
Under AACACUGCCAAUGCCGGUCCCAAGCCCCGAUAAAAGUGGUGGGGGCGG [G28C A40U] stands 0.17.
With AACACUCCCAAUGCCGGUCCCAAGCCCGGAUAAAAGUGGAGUGGGCGG [G7C G42U] the figure was 0.0563; with AACACUGCAAAUGCCGGUCCCAAGCCCGGACAAAAGUGGAGGGGGCGG [C9A U31C], 0.765.
With AACACUGCCAAUGCCGCUCCCAAGCCCGGAUAAAAGUGGAAGGGGCGG [G17C G41A], the self-cleavage worked out at 0.0738.
Turning to AACACUGCCAAUGCCGGUCCCGAGCCCGCAUAAAAGUGGAGGGGGCGG [A22G G29C], the self-cleavage was found to be 0.0828.
In the case of AAAACUGCCAAUGCCGGUCCCAAGGCCGGAUAAAAGUGGAGGGGGCGG [C3A C25G], the self-cleavage worked out at 0.12.
For the variant AACACUGCCAAUGCCGGUCCCAAGCCCGGAUAAAACCGGAGGGGGCGG [G36C U37C], the self-cleavage came out at 0.123.
With AACACUGCCAAUGCCGGUCCCAAUCCCGGAUAAAAGUGGUGGGGGCGG [G24U A40U] the figure was 0.0893.
On to UACACUGCCAAUGCCGGUCCUAAGCCCGGAUAAAAGUGGAGGGGGCGG [A1U C21U], for which the self-cleavage came to 0.0559.
Turning to AACACUUCCAAUGCCGGUCCCAAGCCCGGAUAAAAGUGGUGGGGGCGG [G7U A40U], the self-cleavage amounted to 0.072.
Under AACACUGCCUAUGCCGGUGCCAAGCCCGGAUAAAAGUGGAGGGGGCGG [A10U C19G] stands 0.367; under AACACUGCCAAUGCCUGUCCCAAGCCCGGAUAAAAGUGGAGGGGGUGG [G16U C46U], 1.02.
GUCACUGCCAAUGCCGGUCCCAAGCCCGGAUAAAAGUGGAGGGGGCGG [A1G A2U]: the self-cleavage was found to be 0.19.
With AACACUCCCAAUGCCGGUCCCAAGCCCGGAUUAAAGUGGAGGGGGCGG [G7C A32U] the figure was 0.0629; with AACACUGCCAAUGCCGGUCCCAAGCCCGGAUAAAAGUGGAGGGAGCGC [G44A G48C], 1.11.
With AACACUGACAAUGUCGGUCCCAAGCCCGGAUAAAAGUGGAGGGGGCGG [C8A C14U], the self-cleavage worked out at 0.597.
For AACACUGCCAACGCCGGUCCCAAGCCCGGAGAAAAGUGGAGGGGGCGG [U12C U31G], the self-cleavage worked out at 0.954.
Regarding AACACUGCCAAUGCCGCUCCCAAGCGCGGAUAAAAGUGGAGGGGGCGG [G17C C26G], the self-cleavage came to 0.446.
With AACACUGCCAAUGCCGGUCCCGAGCUCGGAUAAAAGUGGAGGGGGCGG [A22G C26U] the figure was 0.101; with AACACUGCCAAUGCCUGUCCCAAGCCCGGAUAAAAGUGGAGGGGGCCG [G16U G47C], 0.426; with AACACUGCCAAUGCCGGUCCCACGCCCGGAGAAAAGUGGAGGGGGCGG [A23C U31G], 0.274.
